Test in all cases: cell_activity; E. coli
Series [1] deals with T1, pN-TALER N3.2 (synthetic).
T1 chain: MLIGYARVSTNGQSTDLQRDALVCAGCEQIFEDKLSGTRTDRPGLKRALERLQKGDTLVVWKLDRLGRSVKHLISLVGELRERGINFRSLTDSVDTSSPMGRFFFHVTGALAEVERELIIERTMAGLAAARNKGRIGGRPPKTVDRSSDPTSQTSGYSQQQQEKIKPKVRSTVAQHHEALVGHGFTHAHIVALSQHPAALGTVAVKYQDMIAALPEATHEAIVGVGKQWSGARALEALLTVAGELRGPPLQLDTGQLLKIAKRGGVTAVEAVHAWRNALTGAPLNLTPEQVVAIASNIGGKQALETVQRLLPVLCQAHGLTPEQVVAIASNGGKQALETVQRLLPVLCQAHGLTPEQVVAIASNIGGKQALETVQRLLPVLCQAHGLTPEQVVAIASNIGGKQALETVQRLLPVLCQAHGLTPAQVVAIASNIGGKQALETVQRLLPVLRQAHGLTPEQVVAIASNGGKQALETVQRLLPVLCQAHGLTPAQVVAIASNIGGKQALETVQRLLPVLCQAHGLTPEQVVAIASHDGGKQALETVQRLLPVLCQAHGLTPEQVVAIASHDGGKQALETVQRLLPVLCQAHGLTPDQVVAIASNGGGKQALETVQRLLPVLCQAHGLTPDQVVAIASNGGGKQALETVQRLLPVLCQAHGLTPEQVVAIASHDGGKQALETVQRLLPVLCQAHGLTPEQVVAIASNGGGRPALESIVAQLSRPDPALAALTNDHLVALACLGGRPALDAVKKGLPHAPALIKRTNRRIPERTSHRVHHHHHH
The procedure:
(§1) The co-transformed bacteria were plated on media with chloramphenicol, kanamycin, and X-gal then incubated at 37° C. for 18 to 36 hours. Control samples consisted of transformations using the reporter construct alone. Control transformants were similarly plated. The bacterial transformation protocol was either heat shock or electroporation per standard molecular biology techniques.
For each of these N-TALER chimera expression constructs, from one to three independent clones were selected for plasmid purification. These N-TALER chimera expression constructs were co-transformed with five of the N-TALER reporter constructs, as indicated in Table 15. […] In contrast to the result for pN-TALER N4.2.2, the chimera sN-TALER N4.2.2, with the same truncation point but a specific recombinase catalytic domain, reporters with 20, 24, or 40 bp of TALER central sequence length were efficiently recombined (score of 1) while reporters with 30 or 50 bp of TALER central sequence length were not recombined (score of 5). For the chimera sN-TALER N4.2, reporters with 20, 24, or 40 bp of TALER central sequence length were efficiently recombined (score of 1); the reporter with 30 bp of TALER central sequence length was poorly recombined (score of 3); and the reporter with 50 bp of TALER central sequence length was not recombined (score of 5). For the chimera pN-TALER N4.2, the recombination efficiency on the reporters tested varied from intermediate (scores of 3 and 4) to none (score of 5). […] In contrast to the result for sN-TALER N3.2, the chimera pN-TALER N3.2, with the same truncation point but a permissive recombinase catalytic domain, recombination efficiency on the reporters tested varied from efficient (scores of 1.5, 2, and 3) to none (score of 5). For both chimeras sN-TALER V.2 and pN-TALER V.2, there was efficient recombination (scores of 1, 1.5, and 2) of the 5 N-TALER reporter constructs tested.

For series [2], the target named is T2, pN-TALER IV-1-EE2 (GinL7C7-EE2-TALE13) (synthetic).
T2 chain: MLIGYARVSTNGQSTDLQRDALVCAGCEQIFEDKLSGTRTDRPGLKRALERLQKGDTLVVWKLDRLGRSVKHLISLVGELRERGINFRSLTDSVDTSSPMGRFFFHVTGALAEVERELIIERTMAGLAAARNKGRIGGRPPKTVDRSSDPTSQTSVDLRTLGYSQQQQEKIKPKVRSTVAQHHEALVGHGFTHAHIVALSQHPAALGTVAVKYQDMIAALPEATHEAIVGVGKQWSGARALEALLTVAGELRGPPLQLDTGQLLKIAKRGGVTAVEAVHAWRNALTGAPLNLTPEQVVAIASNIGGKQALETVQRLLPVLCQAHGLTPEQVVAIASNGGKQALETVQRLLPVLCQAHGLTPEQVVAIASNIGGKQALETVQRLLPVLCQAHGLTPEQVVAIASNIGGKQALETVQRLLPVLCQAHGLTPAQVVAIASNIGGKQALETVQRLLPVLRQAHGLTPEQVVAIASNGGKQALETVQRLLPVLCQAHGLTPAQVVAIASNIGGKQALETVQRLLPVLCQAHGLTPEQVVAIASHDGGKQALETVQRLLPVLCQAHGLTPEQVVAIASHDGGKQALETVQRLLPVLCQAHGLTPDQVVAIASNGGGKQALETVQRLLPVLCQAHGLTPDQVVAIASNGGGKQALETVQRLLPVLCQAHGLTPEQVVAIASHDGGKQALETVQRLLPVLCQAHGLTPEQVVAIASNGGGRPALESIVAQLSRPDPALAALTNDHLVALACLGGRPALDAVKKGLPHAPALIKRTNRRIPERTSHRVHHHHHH
Particulars: tags: 6-His. The procedure: as §1, with “To test for recombination, E. coli DH5alpha cells were co-transformed with different combinations of TALER expression construct and TALER reporter construct pairs (Tables 6 and 7). The N-TALER expression and reporter constructs were in an approximate 1:1 mass ratio during the transformation. The co-transformed” for “The co-transformed”
Two additional N-TALERs, based on N-TALER IV-1, were constructed wherein the GinH106Y recombinase catalytic domain was replaced with either the GinL7C7-EE2 catalytic domain or the GinL7C7-EE3 permissive recombinase catalytic domain. These N-TALERs were labeled pN-TALER IV-1-EE2 (SEQ ID NO:41) and pN-TALER IV-1-EE3 (SEQ ID NO:45), respectively. pN-TALER IV-1-EE2 was tested in combination with seventeen N-TALER reporter constructs and pN-TALER IV-1-EE3 was tested with three reporter constructs (Table 10).

Series [3] deals with T3, sN-TALER IV-12 (synthetic).
T3 chain: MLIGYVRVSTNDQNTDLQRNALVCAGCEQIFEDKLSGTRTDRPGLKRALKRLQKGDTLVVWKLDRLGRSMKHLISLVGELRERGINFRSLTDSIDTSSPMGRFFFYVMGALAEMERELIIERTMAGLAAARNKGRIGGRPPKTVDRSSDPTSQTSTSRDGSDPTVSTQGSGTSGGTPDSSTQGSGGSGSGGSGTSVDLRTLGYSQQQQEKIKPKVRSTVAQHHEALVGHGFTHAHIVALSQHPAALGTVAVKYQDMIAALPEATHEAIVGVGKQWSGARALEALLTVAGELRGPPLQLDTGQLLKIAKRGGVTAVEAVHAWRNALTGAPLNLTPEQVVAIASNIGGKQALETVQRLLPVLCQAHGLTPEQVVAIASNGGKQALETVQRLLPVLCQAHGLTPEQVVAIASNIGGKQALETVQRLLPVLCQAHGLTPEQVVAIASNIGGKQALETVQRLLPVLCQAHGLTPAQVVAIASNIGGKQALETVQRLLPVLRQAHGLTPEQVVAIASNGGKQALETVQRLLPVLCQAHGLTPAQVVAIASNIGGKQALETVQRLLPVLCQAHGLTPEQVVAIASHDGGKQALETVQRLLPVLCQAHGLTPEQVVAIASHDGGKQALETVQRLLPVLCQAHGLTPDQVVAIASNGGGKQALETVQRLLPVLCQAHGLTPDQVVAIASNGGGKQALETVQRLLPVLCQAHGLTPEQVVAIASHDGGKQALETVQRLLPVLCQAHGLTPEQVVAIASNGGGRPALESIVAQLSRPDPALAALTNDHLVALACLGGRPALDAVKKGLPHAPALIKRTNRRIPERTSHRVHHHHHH
The procedure:
as §1, with “To test for recombination, E. coli DH5alpha cells were co-transformed with different combinations of TALER expression construct and TALER reporter construct pairs (Tables 6 and 7). The N-TALER expression and reporter constructs were in an approximate 1:1 mass ratio during the transformation. The co-transformed” for “The co-transformed”
(§2) The N-TALER expression constructs representing the N-TALER chimeras with varying linker lengths were co-transformed with N-TALER reporter constructs with TALER central sequence lengths of 18, 20, 24, 30, 40, and 50 bp (Table 13). […] Recombination did occur, but was less efficient with the pN-TALER IV-14 (linker length of 71 amino acids) with each of the N-TALER reporters tested.

The target of series [4] is T4, pN-TALER IV-12 (synthetic).
T4 chain: T3 chain with V6A, D12G, N14S, N20D, K50E, M70V, I94V, Y106H, M108T, M114V
The procedure:
as §1, with “To test for recombination, E. coli DH5alpha cells were co-transformed with different combinations of TALER expression construct and TALER reporter construct pairs (Tables 6 and 7). The N-TALER expression and reporter constructs were in an approximate 1:1 mass ratio during the transformation. The co-transformed” for “The co-transformed”
as §2

Changes are numbered by the printed parent chain.

For two molecules, activity results are on record in patent US20140193915, “COMPOSITIONS AND METHODS FOR CUSTOM SITE-SPECIFIC DNA RECOMBINASES” (Monsanto Technology, LLC, published 2014).

B1: Gin20TALE+5 (dsDNA)
DNA 1: AGAAGGTATTTATATATTATCCAAAACCATGGTTTACAGGACTATATAAATACCTTCT
DNA 2: AGAAGGTATTTATATAGTCCTGTAAACCATGGTTTTGGATAATATATAAATACCTTCT
Turning to B1, the figures for the activity in series [1] and in series [2] were 1.5 score and 1 score, respectively.

B2: Gin20TALE+15 (dsDNA)
DNA 1: AGAAGGTATTTATATAGGCACACATGTTATCCAAAACCATGGTTTACAGGACGTTCACACGGTATATAAATACCTTCT
DNA 2: AGAAGGTATTTATATACCGTGTGAACGTCCTGTAAACCATGGTTTTGGATAACATGTGTGCCTATATAAATACCTTCT
Turning to B2, the activity in series [3] and in series [4] was 1 score each time.
